# Test results: patent US20220125891A1 (OSAKA UNIVERSITY, published 2022)
# Where two headings read alike, the source gives them in different places. Positions of bridges follow the written chain, without caps; N, C: chain ends. Non-standard residues stand in square brackets, D forms with d. No end group written: not given here. NMeA = CN[C@@H](C)C(=O)O; dNMeA = CN[C@H](C)C(=O)O
# T1: full-length human Regnase-1 with a FLAG tag on the N-terminal side and a biotin ligase BirA recognition … (human, UniProt Q5D1E8 1-599, biotinylated where required ; Biotinylated at the BirA recognition sequence where required. That sequence is not in the letters.)
# T1 sequence: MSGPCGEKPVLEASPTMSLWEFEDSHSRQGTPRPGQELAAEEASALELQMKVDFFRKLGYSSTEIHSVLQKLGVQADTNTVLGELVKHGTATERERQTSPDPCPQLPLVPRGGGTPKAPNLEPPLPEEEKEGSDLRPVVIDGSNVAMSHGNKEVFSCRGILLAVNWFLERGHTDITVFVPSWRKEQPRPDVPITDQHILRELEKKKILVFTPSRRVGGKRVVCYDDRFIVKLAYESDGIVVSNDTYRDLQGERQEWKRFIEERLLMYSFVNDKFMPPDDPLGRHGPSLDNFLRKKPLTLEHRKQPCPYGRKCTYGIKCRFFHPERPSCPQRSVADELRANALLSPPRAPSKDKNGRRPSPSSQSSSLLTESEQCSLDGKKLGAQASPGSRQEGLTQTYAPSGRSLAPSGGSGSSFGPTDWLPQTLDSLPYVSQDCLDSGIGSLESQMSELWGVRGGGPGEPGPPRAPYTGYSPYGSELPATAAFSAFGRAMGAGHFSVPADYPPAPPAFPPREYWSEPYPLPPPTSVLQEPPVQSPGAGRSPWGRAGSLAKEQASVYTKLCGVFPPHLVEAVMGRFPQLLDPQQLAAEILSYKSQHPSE
# T2: Reg1_301-599 (human Regnase-1 amino acids 301 to 599, FLAG tag on the N-terminal side, BirA recognition … (human))
# T2 sequence (Q5D1E8 301-599, looked up): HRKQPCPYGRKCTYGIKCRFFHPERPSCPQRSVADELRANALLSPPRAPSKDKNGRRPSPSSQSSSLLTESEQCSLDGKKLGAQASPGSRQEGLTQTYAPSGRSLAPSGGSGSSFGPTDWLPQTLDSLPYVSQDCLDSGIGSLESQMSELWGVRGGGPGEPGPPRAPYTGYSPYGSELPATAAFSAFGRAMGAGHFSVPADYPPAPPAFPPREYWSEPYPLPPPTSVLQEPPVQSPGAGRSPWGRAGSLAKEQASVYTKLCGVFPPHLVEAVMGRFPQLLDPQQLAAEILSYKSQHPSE
# Key:
# [1] = target: T1, full-length human Regnase-1 with a FLAG …; assay: cell-based or functional assay
# [2] = target: T3, ΔCTD_Reg1 (human Regnase-1 amino acids 1 to 546, FLAG tag on the N-terminal side, BirA recognition sequence … (human)); assay: cell-based or functional assay
# [3] = target: T2, Reg1_301-599 (human Regnase-1 amino …); assay: cell-based or functional assay
# [4] = target: T1, full-length human Regnase-1 with a FLAG …; assay: cell-based or functional assay; remark: listed apart in the source
# [5] = target: T3, ΔCTD_Reg1 (human Regnase-1 amino acids …); assay: cell-based or functional assay; remark: listed apart in the source
# [6] = target: T2, Reg1_301-599 (human Regnase-1 amino …); assay: cell-based or functional assay; remark: listed apart in the source
# [7] = target: T1, full-length human Regnase-1 with a FLAG …; assay: AlphaScreen, blocks TBK1 binding to FL_Reg1
# [8] = target: T1, full-length human Regnase-1 with a FLAG …; assay: AlphaScreen, blocks IKKβ binding to FL_Reg1
# [9] = target: T1, full-length human Regnase-1 with a FLAG …; assay: affinity selection-MS (SEC, LC/MS), 1 µM each
# [10] = target: T1, full-length human Regnase-1 with a FLAG …; assay: cell-based or functional assay; remark: listed apart in the source
# [11] = target: T3, ΔCTD_Reg1 (human Regnase-1 amino acids …); assay: cell-based or functional assay; remark: listed apart in the source
# [12] = target: T1, full-length human Regnase-1 with a FLAG …; assay: AlphaScreen, blocks IKKβ binding to FL_Reg1; remark: listed apart in the source
# [13] = target: T1, full-length human Regnase-1 with a FLAG …; assay: AlphaScreen, blocks TBK1 binding to FL_Reg1; remark: listed apart in the source
Binder,"IC50, phosphorylation by TBK1 [1] [µM]","IC50, phosphorylation by TBK1 [2] [µM]","IC50, phosphorylation by TBK1 [3] [µM]","IC50, phosphorylation by IKKβ [4] [µM]","IC50, phosphorylation by IKKβ [5] [µM]","IC50, phosphorylation by IKKβ [6] [µM]",IC50 [7] [µM],IC50 [8] [µM],AS-MS ratio(%) [9] [%],"IC50, phosphorylation by IKKβ [10] [µM]","IC50, phosphorylation by TBK1 [10] [µM]","IC50, phosphorylation by IKKβ [11] [µM]","IC50, phosphorylation by TBK1 [11] [µM]",IC50 [12] [µM],IC50 [13] [µM]
[NMeA]KFWIHHSFED (lactam N-11) [PP20],38.5,> 62.1,> 62.1,24.7,> 62.1,> 62.1,47.6,> 62.1,85,–,–,–,–,–,–
[NMeA]TSWYKVNWGQD (lactam N-12) [PP1],54.5,> 62.1,> 62.1,28.1,> 62.1,> 62.1,> 62.1,> 62.1,21.8,28.1,54.5,> 62.1,> 62.1,> 62.1,> 62.1
[NMeA]GYANSWYNIWD (lactam N-12) [PP2],21.7,17.6,22.4,16.6,14,18.5,15.5,35.8,14.2,16.6,21.7,14,17.6,35.8,15.5
[NMeA]NSWYKIWGLD (lactam N-11) [PP21],13.5,11.7,17,19.6,39.3,37.2,5.6,20.7,15.1,–,–,–,–,–,–

# Results, then the binder that gave them:
"IC50, phosphorylation by TBK1 [1] [µM]","IC50, phosphorylation by TBK1 [2] [µM]","IC50, phosphorylation by TBK1 [3] [µM]","IC50, phosphorylation by IKKβ [4] [µM]","IC50, phosphorylation by IKKβ [5] [µM]","IC50, phosphorylation by IKKβ [6] [µM]",IC50 [7] [µM],IC50 [8] [µM],AS-MS ratio(%) [9] [%],"IC50, phosphorylation by IKKβ [10] [µM]","IC50, phosphorylation by TBK1 [10] [µM]","IC50, phosphorylation by IKKβ [11] [µM]","IC50, phosphorylation by TBK1 [11] [µM]",IC50 [12] [µM],IC50 [13] [µM],Binder
3.7,4.6,5.8,5.4,12.6,10.1,2.4,5.8,2.1,–,–,–,–,–,–,[NMeA]VFYKIWYNWD (lactam N-11) [PP19]
18.8,29.7,30.7,25.6,> 62.1,> 62.1,9.2,41.3,28.6,–,–,–,–,–,–,[dNMeA]PTSSWYKIWD (lactam N-11) [PP23]
24.3,22.8,25.8,15,34,31,11.4,26.8,14.5,–,–,–,–,–,–,[NMeA]NSWYRIWGLD (lactam N-11) [PP22]
0.6,1.8,0.9,0.4,0.2,0.5,< 0.06,< 0.06,71.6,–,–,–,–,–,–,[NMeA]DIWFDYWDYD (lactam N-11) [PP18]
3.9,5.7,7.1,4.6,8.3,6.8,3.1,8.3,1.2,4.6,3.9,8.3,5.7,8.3,3.1,[dNMeA]KHASAWYRIWD (lactam N-12) [PP3]
